# According to patent US20230212319A1, “NOVEL ANTIGEN BINDING DOMAINS AND SYNTHETIC ANTIGEN RECEPTORS INCORPORATING THE SAME” (University of Southern California, priority 2020, published 2023):
# B1: CD8SP-BCMA-FHVH-93-G4S-hu-mROO5-vL-[hTCRb-S57C]-F-P2A-IgHSP-CD20-VHH-USC1-2HCD26-G4S-AFP-Va-14-3-AI-[hTCRa-T48C]-F-F2A-PAC (protein)
# chain: MALPVTALLLPLALLLHAARPACEVQLLESGGGLIQPGGSLRLSCAASGFTFSSHAMTWVRQAPGKGLEWVSAISGSGDYTHYADSVKGRFTISRDNSKNTVYLQMNSLRAEDSAVYYCAKDEDGGSLLGHRGQGTLVTVSSGTGGGGSGGGGSGGGGSEFDIQMTQSPSSLSASVGDRVTITCKASDHINNWLAWYQQKPGQAPKLLIYGATTLETGVPSRFSGSGSGTDYTLTISSLQPEDFATYYCQQSWNTPWTFGQGTKLEIKRLEDLKNVFPPEVAVFEPSEAEISHTQKATLVCLATGFYPDHVELSWWVNGKEVHSGVCTDPQPLKEQPALNDSRYCLSSRLRVSATFWQNPRNHFRCQVQFYGLSENDEWTQDRAKPVTQIVSAEAWGRADCGFTSESYQQGVLSATILYEILLGKATLYAVLVSALVLMAMVKRKDSRGRAKRSGSGATNFSLLKQAGDVEENPGPTSATMDWIWRILFLVGAATGAHSGPEVQLVESGGGLVQAGGSLRLSCAASGRTFSMGWFRQAPGKEREFVAAITYSGGSPYYADSVKGRFTISRDNAKNTVYLQMNSLKPEDTAVYYCAANPTYGSDWNAENWGQGTQVTVSSGSGGGGSGGGGSGGGGSFEQKEVEQNSGPLSVPEGAIASLNCTYSDRGSQSFFWYRQYSGKSPELIMSIYSNGDKEDGRFTAQLNKASQYVSLLIRDSQPSDSATYLCAVNSQSGVALNFGKGTSLLVTPHIQNPDPAVYQLRDSKSSDKSVCLFTDFDSQTNVSQSKDSDVYITDKCVLDMRSMDFKSNSAVAWSNKSDFACANAFNNSIIPEDTFFPSPESSCDVKLVEKSFETDTNLNFQNLSVIGFRILLLKVAGFNLLMTLRLWSSRAKRSGSGVKQTLNFDLLKLAGDVESNPGPSRGHMTEYKPTVRLATRDDVPRAVRTLAAAFADYPATRHTVDPDRHIERVTELQELFLTRVGLDIGKVWVADDGAAVAVWTTPESVEAGAVFAEIGPRMAELSGSRLAAQQQMEGLLAPHRPKEPAWFLATVGVSPDHQGKGLGSAVVLPGVEAAERAGVPAFLETSAPRNLPFYERLGFTVTADVEVPEGPRTWCMTRKPGA
# B2: SEQ ID NO: 22252: bispecific SAR on CD19 targeted SIR backbone comprising the receptor binding domain of the ligand 4-1BB (protein)
# chain: MALPVTALLLPLALLLHAARPDIQMTQSPSSLSASVGDRVTITCKASDHINNWLAWYQQKPGQAPKLLIYGATTLETGVPSRFSGSGSGTDYTLTISSLQPEDFATYYCQQSWNTPWTFGQGTKLEIKRLEDLKNVFPPEVAVFEPSEAEISHTQKATLVCLATGFYPDHVELSWWVNGKEVHSGVCTDPQPLKEQPALNDSRYCLSSRLRVSATFWQNPRNHFRCQVQFYGLSENDEWTQDRAKPVTQIVSAEAWGRADCGFTSESYQQGVLSATILYEILLGKATLYAVLVSALVLMAMVKRKDSRGRAKRSGSGATNFSLLKQAGDVEENPGPTSATMDWIWRILFLVGAATGAHSGPGLLDLRQGMFAQLVAQNVLLIDGPLSWYSDPGLAGVSLTGGLSYKEDTKELVVAKAGVYYVFFQLELRRVVAGEGSGSVSLALHLQPLRSAAGAAALALTVDLPPASSEARNSAFGFQGRLLHLSAGQRLGVHLHTEARARHAWQLTQGATVLGLFRVTPEIPAGLPSPRSEGSGGGGSGGGGSGGGGSFEQVQLQQPGAELVKPGASVKMSCKASGYAFSSYWINWMKQKPGQGLEWIGQIYPGDGDTNYNGKFKGRATLTADTSSSTAYMQLSSLTSEDSAVYFCARSITTVVGCAMDYWGQGTSVTVSSTRIQNPDPAVYQLRDSKSSDKSVCLFTDFDSQTNVSQSKDSDVYITDKCVLDMRSMDFKSNSAVAWSNKSDFACANAFNNSIIPEDTFFPSPESSCDVKLVEKSFETDTNLNFQNLSVIGFRILLLKVAGFNLLMTLRLWSSRAKRSGSGVKQTLNFDLLKLAGDVESNPGPSRGHMTEYKPTVRLATRDDVPRAVRTLAAAFADYPATRHTVDPDRHIERVTELQELFLTRVGLDIGKVWVADDGAAVAVWTTPESVEAGAVFAEIGPRMAELSGSRLAAQQQMEGLLAPHRPKEPAWFLATVGVSPDHQGKGLGSAVVLPGVEAAERAGVPAFLETSAPRNLPFYERLGFTVTADVEVPEGPRTWCMTRKPGA
# B3: SEQ ID NO: 22253: bispecific SAR on CD19 targeted SIR backbone comprising the receptor binding domain of the ligand APRIL (protein)
# chain: MALPVTALLLPLALLLHAARPDIQMTQSPSSLSASVGDRVTITCKASDHINNWLAWYQQKPGQAPKLLIYGATTLETGVPSRFSGSGSGTDYTLTISSLQPEDFATYYCQQSWNTPWTFGQGTKLEIKRLEDLKNVFPPEVAVFEPSEAEISHTQKATLVCLATGFYPDHVELSWWVNGKEVHSGVCTDPQPLKEQPALNDSRYCLSSRLRVSATFWQNPRNHFRCQVQFYGLSENDEWTQDRAKPVTQIVSAEAWGRADCGFTSESYQQGVLSATILYEILLGKATLYAVLVSALVLMAMVKRKDSRGRAKRSGSGATNFSLLKQAGDVEENPGPTSATMDWIWRILFLVGAATGAHSGPVLHLVPINATSKDDSDVTEVMWQPALRRGRGLQAQGYGVRIQDAGVYLLYSQVLFQDVTFTMGQVVSREGQGRQETLFRCIRSMPSHPDRAYNSCYSAGVFHLHQGDILSVIIPRARAKLNLSPHGTFLGFVKLGSGGGGSGGGGSGGGGSFEQVQLQQPGAELVKPGASVKMSCKASGYAFSSYWINWMKQKPGQGLEWIGQIYPGDGDTNYNGKFKGRATLTADTSSSTAYMQLSSLTSEDSAVYFCARSITTVVGCAMDYWGQGTSVTVSSTRIQNPDPAVYQLRDSKSSDKSVCLFTDFDSQTNVSQSKDSDVYITDKCVLDMRSMDFKSNSAVAWSNKSDFACANAFNNSIIPEDTFFPSPESSCDVKLVEKSFETDTNLNFQNLSVIGFRILLLKVAGFNLLMTLRLWSSRAKRSGSGVKQTLNFDLLKLAGDVESNPGPSRGHMTEYKPTVRLATRDDVPRAVRTLAAAFADYPATRHTVDPDRHIERVTELQELFLTRVGLDIGKVWVADDGAAVAVWTTPESVEAGAVFAEIGPRMAELSGSRLAAQQQMEGLLAPHRPKEPAWFLATVGVSPDHQGKGLGSAVVLPGVEAAERAGVPAFLETSAPRNLPFYERLGFTVTADVEVPEGPRTWCMTRKPGA
# B4: CD8SP-CD19-hu-mROO5-1-vL-IgCL-TCRg-6MD-F-P2A-SP-CD19-hu-mROO5-1-vH-hTCR-delta-F-F2A-PAC (protein)
# chain: MALPVTALLLPLALLLHAARPDIQMTQSPSSLSASVGDRVTITCKASDHINNWLAWYQQKPGQAPKLLIYGATTLETGVPSRFSGSGSGTDYTLTISSLQPEDFATYYCQQSWNTPWTFGQGTKLEIKRLEGQPKANPTVTLFPPSSEELQANKATLVCLISDFYPGAVTVAWKADGSPVKAGVETTKPSKQSNNKYAASSYLSLTPEQWKSHRSYSCQVTHEGSTVEKTVAPTECSPIKTDVITMDPKDNCSKDANDTLLLQLTNTSAYYMYLLLLLKSVVYFAIITCCLLRRTAFCCNGEKSRAKRSGSGATNFSLLKQAGDVEENPGPTSMDWIWRILFLVGAATGAHSFEQVQLQQPGAELVKPGASVKMSCKASGYAFSSYWINWMKQKPGQGLEWIGQIYPGDGDTNYNGKFKGRATLTADTSSSTAYMQLSSLTSEDSAVYFCARSITTVVGCAMDYWGQGTSVTVSSTRSQPHTKPSVFVMKNGTNVACLVKEFYPKDIRINLVSSKKITEFDPAIVISPSGKYNAVKLGKYEDSNSVTCSVQHDNKTVHSTDFEVKTDSTDHVKPKETENTKQPSKSCHKPKAIVHTEKVNMMSLTVLGLRMLFAKTVAVNFLLTAKLFFLRAKRSGSGVKQTLNFDLLKLAGDVESNPGPSRGHMTEYKPTVRLATRDDVPRAVRTLAAAFADYPATRHTVDPDRHIERVTELQELFLTRVGLDIGKVWVADDGAAVAVWTTPESVEAGAVFAEIGPRMAELSGSRLAAQQQMEGLLAPHRPKEPAWFLATVGVSPDHQGKGLGSAVVLPGVEAAERAGVPAFLETSAPRNLPFYERLGFTVTADVEVPEGPRTWCMTRKPGA
# System: RAJI cells
# Assay: JNG assay, co-culture with RAJI cells
# Format: cell-based
# Settings: co-culture with RAJI cells
# Description: Cellular supernatant is collected and assayed for the induction of cytokines (e.g., IL2).
# JNG (Jurkat cells expressing EGFP under an NFAT promoter) were infected with lentiviral vectors encoding different single chain and multi-chain SARs by spinfection in the presence of 8 µg/ml of Polybrene® (Sigma, Catalog no. H9268). The Jurkat-NFAT-GFP cells are engineered in such a way that the IL-2 promoter, which carries NFAT binding sites, is cloned upstream of the GFP gene. These cells have been used to study signaling via TCR and CAR. The different SARs were stably expressed in Jurkat NFAT-GFP cells by lentiviral mediated gene transfer, followed by selection with puromycin or blasticidin. No drug selection was used in case the construct lacked an antibiotic resistance gene. The SAR-expressing Jurkat-NFAT-GFP cells were cocultured with the target cells at E:T ratio of approximately 1:2 for approximately 4 hours to 18 hours. When the interaction between SIRs and their target antigen results in activation of the NFAT pathway, GFP expression is induced. […] GFP expression was monitored by FACS analysis. The Jurkat-NFAT-GFP (parental) cells were used as control. The structure of different constructs can be determined based on their names. […] The sequence of the other constructs in the table can be similarly determined from their names and by referring to the different Tables of this disclosure that provide the names and SEQ ID NO of the different modules. Alternatively, the composition and modular architecture of the different SAR constructs can be determined from their sequences by bioinformatics tools, including using nucleic acid and amino acids homology searches. A SAR is considered positive in the assay in case the SAR expressing Jurkat-NFAT-GFP cells show greater % GFP positive cells when cultured with the target cell line as compared to parental Jurkat-NFAT-GFP cells. […] In general, the number +/-, +, 2+, 3+, 4+, 5+ refer to approximately 5%, 10%, 20%, 30%, 40% and 50% GFP positive cells. The % of GFP induction in the above assay is dependent not only the relative strength of the SAR but also, among other factors, on the relative level of expression of the SAR in the JNG cells and the relative level of expression of the target antigen in the target cell line. To control for the difference in gene transduction efficiency of the different SAR constructs, the experiment was conducted with JNG cells transduced with SAR constructs co-expressing a drug resistance gene (e.g., puromycin or PAC) followed by drug selection to generate a stable population of SAR-expressing cells. It is to be noted that the drug resistance gene (e.g., PAC) in the SAR constructs is optional and in vivo studies were conducted with SAR constructs lacking the PAC gene.
row,Molecule,GFP induction / activity
1,B1,robust GFP induction activity
2,B2,retained the ability to respond
3,B3,retained the ability to respond
4,B4,robust GFP induction
